Test results: US20160264649A1

Legend:
Assay in all cases: cell-based or functional assay
[1] = target: HIV-1 MGRM-F1-022 Env (HIV-1)
[2] = target: HIV-1 MGRM-F1-012 Env (HIV-1)
[3] = target: HIV-1 MGRM-F1-023 Env (HIV-1)
[4] = target: HIV-1 MGRM-AE-005 Env (HIV-1)
[5] = target: HIV-1 MGRM-Chronic-B-020 Env on pseudovirus (HIV-1)
[6] = target: HIV-1 MGRM-C-002 Env on pseudovirus (HIV-1)
[7] = target: HIV-1 MGRM-G-001 Env (HIV-1)
[8] = target: HIV-1 MGRM-AG-001 Env (HIV-1)
[9] = target: HIV-1 MGRM-AE-003 Env (HIV-1)
[10] = target: HIV-1 MGRM-Chronic-B-024 Env on pseudovirus (HIV-1)
[11] = target: HIV-1 MGRM-G-017 Env (HIV-1)
[12] = target: HIV-1 MGRM-AE-004 Env (HIV-1)
HIV-1 APV-13 Env (HIV-1) = target: HIV-1 APV-13 Env (HIV-1)
[13] = target: HIV-1 MGRM-C-006 Env on pseudovirus (HIV-1)
[14] = target: HIV-1 MGRM-F1-018 Env (HIV-1)
[15] = target: HIV-1 MGRM-C-015 Env on pseudovirus (HIV-1)
[16] = target: HIV-1 6535.3 (Acute) Env on pseudovirus (HIV-1)
[17] = target: HIV-1 MGRM-G-009 Env (HIV-1)
[18] = target: HIV-1 MGRM-G-024 Env (HIV-1)
[19] = target: HIV-1 MGRM-D-026 Env (HIV-1)
[20] = target: HIV-1 MGRM-G-013 Env (HIV-1)
[21] = target: HIV-1 LAVI_C3 Env on pseudovirus (HIV-1)
[22] = target: HIV-1 MGRM-D-004 Env (HIV-1)
[23] = target: HIV-1 92UG024 Env (HIV-1)
[24] = target: HIV-1 93TH305 Env on pseudovirus (HIV-1)
[25] = target: HIV-1 MGRM-F1-006 Env (HIV-1)
[26] = target: HIV-1 MGRM-AE-007 Env (HIV-1)
[27] = target: HIV-1 MGRM-D-020 Env (HIV-1)
HIV-1 APV-17 Env (HIV-1) = target: HIV-1 APV-17 Env (HIV-1)
[28] = target: HIV-1 THR0.18 (Acute) Env on pseudovirus (HIV-1)
[29] = target: HIV-1 92TH021 Env (HIV-1)
[30] = target: HIV-1 IAVI-C22 Env (HIV-1)
[31] = target: HIV-1 94UG114 Env (HIV-1)
[32] = target: HIV-1 MGRM-G-006 Env (HIV-1)
[33] = target: HIV-1 MGRM-F1-020 Env (HIV-1)
[34] = target: HIV-1 LAVI_C22 Env on pseudovirus (HIV-1)
[35] = target: HIV-1 MGRM-C-001 Env on pseudovirus (HIV-1)
[36] = target: HIV-1 APV_13 Env on pseudovirus (HIV-1)
[37] = target: HIV-1 MGRM-D-018 Env (HIV-1)
[38] = target: HIV-1 MGRM-G-011 Env (HIV-1)
[39] = target: HIV-1 MGRM-D-019 Env (HIV-1)
[40] = target: HIV-1 MGRM-Chronic-B-012 Env on pseudovirus (HIV-1)
[41] = target: HIV-1 MGRM-G-016 Env (HIV-1)
[42] = target: HIV-1 MGRM-Chronic-B-008 Env on pseudovirus (HIV-1)
[43] = target: HIV-1 SF162 Env on pseudovirus (HIV-1) (UniProt P19550)
[44] = target: HIV-1 MGRM-AE-006 Env (HIV-1)
[45] = target: HIV-1 TRJ0.58 (Acute) Env on pseudovirus (HIV-1)
[46] = target: HIV-1 MGRM-D-003 Env (HIV-1)
[47] = target: HIV-1 MGRM-Chronic-B-023 Env on pseudovirus (HIV-1)
[48] = target: HIV-1 MGRM-Chronic-B-003 Env on pseudovirus (HIV-1)
[49] = target: HIV-1 MGRM-G-025 Env (HIV-1)

Substance: 2F5 (antibody)
- IC50 (pseudovirus neutralization) [1]: 1.26 µg/mL
- IC50 (pseudovirus neutralization) [2]: > 50 µg/mL
- IC50 (pseudovirus neutralization) [3]: 1.78 µg/mL
- IC50 (µg/ml), pseudovirus neutralization [4]: 0.14 µg/mL
- IC50 [5]: 0.78 µg/mL
- IC50 [6]: 44.7 µg/mL
- IC50 (µg/ml), pseudovirus neutralization [7]: 4.1 µg/mL
- IC50 (µg/ml), pseudovirus neutralization [8]: 0.75 µg/mL
- IC50 (µg/ml), pseudovirus neutralization [9]: 0.24 µg/mL
- IC50 [10]: > 50 µg/mL
- IC50 (µg/ml), pseudovirus neutralization [11]: 0.6 µg/mL
- IC50 (µg/ml), pseudovirus neutralization [12]: 0.98 µg/mL
- neutralization IC50 (HIV-1 APV-13 Env (HIV-1)): 2.8 µg/mL
- IC50 [13]: > 50 µg/mL
- IC50 (pseudovirus neutralization) [14]: 3.91 µg/mL
- IC50 [15]: > 50 µg/mL
- IC50 [16]: 2.76 µg/mL
- IC50 (µg/ml), pseudovirus neutralization [17]: 7.21 µg/mL
- IC50 (µg/ml), pseudovirus neutralization [18]: 1.07 µg/mL
- IC50 (µg/ml), pseudovirus neutralization [19]: 4.37 µg/mL
- IC50 (µg/ml), pseudovirus neutralization [20]: 0.59 µg/mL
- IC50 [21]: > 50 µg/mL
- IC50 (µg/ml), pseudovirus neutralization [22]: 2.3 µg/mL
- IC50 (µg/ml), pseudovirus neutralization [23]: 0.95 µg/mL
- neutralization IC50 [23]: 1.27 µg/mL
- neutralization IC90 [23]: 34.4 µg/mL
- IC50 [24]: 7.61 µg/mL
- IC50 (pseudovirus neutralization) [25]: 1.1 µg/mL
- IC50 (µg/ml), pseudovirus neutralization [26]: 0.07 µg/mL
- IC50 (µg/ml), pseudovirus neutralization [27]: > 50 µg/mL
- neutralization IC50 (HIV-1 APV-17 Env (HIV-1)): 2 µg/mL
- IC50 [28]: > 50 µg/mL
- neutralization IC50 [29]: 1.51 µg/mL
- neutralization IC90 [29]: 18.8 µg/mL
- neutralization IC50 [30]: > 50 µg/mL
- neutralization IC90 [30]: > 50 µg/mL
- IC50 (µg/ml), pseudovirus neutralization [31]: > 50 µg/mL
- IC50 (µg/ml), pseudovirus neutralization [32]: 1.33 µg/mL
- IC50 (pseudovirus neutralization) [33]: 0.59 µg/mL
- IC50 [34]: > 50 µg/mL
- IC50 [35]: > 50 µg/mL
- IC50 [36]: 3.81 µg/mL
- IC50 (µg/ml), pseudovirus neutralization [37]: 4.05 µg/mL
- IC50 (µg/ml), pseudovirus neutralization [38]: 1.16 µg/mL
- IC50 (µg/ml), pseudovirus neutralization [39]: 0.14 µg/mL
- IC50 [40]: 17.6 µg/mL
- IC50 (µg/ml), pseudovirus neutralization [41]: 16.8 µg/mL
- IC50 [42]: > 50 µg/mL
- IC50 [43]: 2.52 µg/mL
- IC50 (µg/ml), pseudovirus neutralization [44]: 0.18 µg/mL
- IC50 [45]: > 50 µg/mL
- IC50 (µg/ml), pseudovirus neutralization [46]: > 50 µg/mL
- IC50 [47]: 0.1 µg/mL
- IC50 [48]: 1 µg/mL
- IC50 (µg/ml), pseudovirus neutralization [49]: > 50 µg/mL

Substance: b12 (antibody)
- IC50 (pseudovirus neutralization) [1]: > 50 µg/mL
- IC50 (pseudovirus neutralization) [2]: > 50 µg/mL
- IC50 (pseudovirus neutralization) [3]: > 50 µg/mL
- IC50 (µg/ml), pseudovirus neutralization [4]: 0.63 µg/mL
- IC50 [5]: 6.16 µg/mL
- IC50 [6]: > 50 µg/mL
- IC50 (µg/ml), pseudovirus neutralization [7]: > 50 µg/mL
- IC50 (µg/ml), pseudovirus neutralization [8]: 11.9 µg/mL
- IC50 (µg/ml), pseudovirus neutralization [9]: > 50 µg/mL
- IC50 [10]: > 50 µg/mL
- IC50 (µg/ml), pseudovirus neutralization [11]: > 50 µg/mL
- IC50 (µg/ml), pseudovirus neutralization [12]: > 50 µg/mL
- neutralization IC50 (HIV-1 APV-13 Env (HIV-1)): > 25 µg/mL
- neutralization IC90 (HIV-1 APV-13 Env (HIV-1)): > 50 µg/mL
- IC50 [13]: > 50 µg/mL
- IC50 (pseudovirus neutralization) [14]: > 50 µg/mL
- IC50 [15]: 13.3 µg/mL
- IC50 [16]: 1.93 µg/mL
- IC50 (µg/ml), pseudovirus neutralization [17]: > 50 µg/mL
- IC50 (µg/ml), pseudovirus neutralization [18]: 2.38 µg/mL
- IC50 (µg/ml), pseudovirus neutralization [19]: 1.55 µg/mL
- IC50 (µg/ml), pseudovirus neutralization [20]: > 50 µg/mL
- IC50 [21]: 0.94 µg/mL
- IC50 (µg/ml), pseudovirus neutralization [22]: > 50 µg/mL
- IC50 (µg/ml), pseudovirus neutralization [23]: 45.6 µg/mL
- neutralization IC50 [23]: 49.1 µg/mL
- neutralization IC90 [23]: > 50 µg/mL
- IC50 [24]: 4.17 µg/mL
- IC50 (pseudovirus neutralization) [25]: > 50 µg/mL
- IC50 (µg/ml), pseudovirus neutralization [26]: > 50 µg/mL
- IC50 (µg/ml), pseudovirus neutralization [27]: > 50 µg/mL
- neutralization IC50 (HIV-1 APV-17 Env (HIV-1)): > 25 µg/mL
- neutralization IC90 (HIV-1 APV-17 Env (HIV-1)): > 50 µg/mL
- IC50 [28]: 3.62 µg/mL
- neutralization IC50 [29]: 9.99 µg/mL
- neutralization IC90 [29]: > 50 µg/mL
- neutralization IC50 [30]: 3.6 µg/mL
- neutralization IC90 [30]: 29.6 µg/mL
- IC50 (µg/ml), pseudovirus neutralization [31]: > 50 µg/mL
- IC50 (µg/ml), pseudovirus neutralization [32]: > 50 µg/mL
- IC50 (pseudovirus neutralization) [33]: > 50 µg/mL
- IC50 [34]: 7.64 µg/mL
- IC50 [35]: > 50 µg/mL
- IC50 [36]: > 50 µg/mL
- IC50 (µg/ml), pseudovirus neutralization [37]: 1.39 µg/mL
- IC50 (µg/ml), pseudovirus neutralization [38]: > 50 µg/mL
- IC50 (µg/ml), pseudovirus neutralization [39]: > 50 µg/mL
- IC50 [40]: > 50 µg/mL
- IC50 (µg/ml), pseudovirus neutralization [41]: > 50 µg/mL
- IC50 [42]: 2.82 µg/mL
- IC50 [43]: 0.02 µg/mL
- IC50 (µg/ml), pseudovirus neutralization [44]: > 50 µg/mL
- IC50 [45]: > 50 µg/mL
- IC50 (µg/ml), pseudovirus neutralization [46]: > 50 µg/mL
- IC50 [47]: > 50 µg/mL
- IC50 [48]: > 50 µg/mL
- IC50 (µg/ml), pseudovirus neutralization [49]: > 50 µg/mL
